Earlier results, collected in article PMC11302571.

Molecular target: BT-R3 (Anopheles gambiae)

**Q.** For Cry4B toxin (from UniProt P05519), which Kd is on record?
**A.** Its Kd is 36 nM.
